In US20230241072A1 (ALMAC DISCOVERY, published 2023):
Numbering of substitutions follows the chain as printed. In names and notes the source's numbering stands.

B1: hFc - P3A1 (Fc fusion)
chain: GGGGSGGGGSGGGGSTRVDQTPRTATKETGESLTINCVLTDTSYGLYSTSWFRKNPGTTDWERMSIGGRYVESVNKGAKSFSLRIKDLTVADSATYYCKAREARHPWLRQWYDGAGTVLTVN
notes: VNAR at the C-terminus of the Fc, by the printed name; not shown: human IgG1 Fc domain
B2: P3A1 hFc(442) (Fc fusion)
chain: TRVDQTPRTATKETGESLTINCVLTDTSYGLYSTSWFRKNPGTTDWERMSIGGRYVESVNKGAKSFSLRIKDLTVADSATYYCKAREARHPWLRQWYDGAGTVLTVNGGGGSGGGGSGGGGS
notes: hIgG1 Fc with S442C (EU); also called P3A1hFc(S442C); not shown: human IgG1 Fc domain
B3: P3A1 hFc (Fc fusion)
chain: B2 chain
notes: VNAR fused to engineered hIgG1 Fc via [G4S]3; also called P3A1hFc(S239C); not shown: human IgG1 Fc domain
B4: 2V hFc (Fc fusion)
chain: B2 chain with R86Q, E87S, A88L, R89A, H90I, P91S, W92T, L93R, R94S, Q95Y
notes: Control VNAR from a naive library, no known target; not shown: human IgG1 Fc domain
B5: B1V15 hFc (Fc fusion)
chain: ASVTQSPRSASKETGESLTITCRVTGANYGLAATYWYRKNPGSSNQERISISGRYSESVNKRTMSFSLRISSLTVEDSATYYCKAYPWGAGAPWLVQWYDGQGTKLEVKGGGGSGGGGSGGGGS
notes: Humanised B1 variant fused to hFc; not shown: human IgG1 Fc domain

Experiments:
[1] = target: T1, human ROR1-hFc fusion protein (extracellular domain) (human, UniProt Q01973 30-406); assay: SPR (Pioneer) or BLI (Octet K2); ROR1-hFc extracellular domain amine-coupled
T1 construct: extracellular domain; Immobilised by amine coupling on COOH2 chips or AR2G sensors; also called hROR1; not shown: human Fc (hFc)
Procedure: (§1) VNARs were genetically fused to engineered hIgG1 Fc domains via standard [G₄S]₃ that contained a cysteine substitution in the hIgG1 Fc sequence, S239C (EU numbering). The VNAR Fc fusion proteins were expressed as secreted protein in CHO K1 cells and purified from the media using MabSelect™ SuRe™ (Evitria, Switzerland). Purified proteins were analysed by SEC (AdvanceBio, Agilent), SDS PAGE and mass spectrometry to confirm sequence and protein integrity. Binding kinetics were determined using a Pioneer Surface Plasmon Resonance (SPR) instrument (SensiQ/Pall ForteBio), or the Biolayer Interferometry (BLI) Octet K2 system (ForteBio). ROR1-hFc or ROR2-hFc fusion proteins (extracelluar domains) were immobilised in sodium acetate pH5 buffer to COOH₂ chips or AR2G sensors using amine coupling. VNARs and VNAR-Fc molecules were tested at various concentrations and the Ka (M⁻¹ s⁻¹), Kd (s⁻¹) and KD (nM) values were determined using QDat software (SensiQ/Pall ForteBio) or Octet Data Analysis High Throughput software (ForteBio) for Biolayer Interferometry.

[2] = target: T2, human ROR2-hFc fusion protein (extracellular domain) (human, UniProt Q01974 34-403); assay: SPR (Pioneer) or BLI (Octet K2); ROR2-hFc extracellular domain amine-coupled
T2 construct: extracellular domain; Immobilised by amine coupling; also called hROR2; not shown: human Fc (hFc)
Procedure: as §1

Row | Binder | koff [1] [s⁻¹] | binding result [2] | Kd [1] [nM] | kon [1] [M⁻¹ s⁻¹] | binding result [1]
1 | B1 | 0.000776 | no binding |  |  | 
2 | B2 | 0.0002 | no binding | 0.741 | 270000 | 
3 | B3 | 0.000564 | no binding |  |  | 
4 | B4 |  | no binding |  |  | no binding
5 | B5 | 0.00013 | no binding | 0.726 | 179000 | 
